Results from FireProtDB (doi:10.1021/bi00125a013).

Settings: Bacillus amyloliquefaciens, 20 °C, Urea, Fluorescence, whole UniProt chain shown
[1] = pH 2.76, diglycine 30 mM, NaCl 0.5 M
[2] = pH 2.82, diglycine 30 mM, NaCl 0.1 M

B1: Ribonuclease wild type, P00648 (protein)
chain: MMKMEGIALKKRLSWISVCLLVLVSAAGMLFSTAAKTETSSHKAHTEAQVINTFDGVADYLQTYHKLPDNYITKSEAQALGWVASKGNLADVAPGKSIGGDIFSNREGKLPGKSGRTWREADINYTSGFRNSDRILYSSDWLIYKTTDHYQTFTKIR
denaturant m value (pH 2.5, diglycine 100 mM): 3.22 kcal/mol/M
denaturant midpoint (higher = more stable) (pH 2.5, diglycine 100 mM): 0.52 M
unfolding free energy (pH 2.5, diglycine 100 mM): 1.66 kcal/mol
denaturant m value [1]: 2.62 kcal/mol/M
denaturant midpoint (higher = more stable) [1]: 1.61 M
unfolding free energy [1]: 4.2 kcal/mol
denaturant m value [2]: 2.97 kcal/mol/M
denaturant midpoint (higher = more stable) [2]: 1.21 M
unfolding free energy [2]: 3.58 kcal/mol
denaturant m value (pH 2.87, diglycine 30 mM): 3.19 kcal/mol/M
denaturant midpoint (higher = more stable) (pH 2.87, diglycine 30 mM): 1.14 M
unfolding free energy (pH 2.87, diglycine 30 mM): 3.63 kcal/mol
denaturant m value (pH 2.98, diglycine 100 mM): 3.28 kcal/mol/M
denaturant midpoint (higher = more stable) (pH 2.98, diglycine 100 mM): 1.39 M
unfolding free energy (pH 2.98, diglycine 100 mM): 4.55 kcal/mol
